# Like-named read-outs stand apart in the source and are kept apart here.
# Tests used:
# [1] = target: T1, dengue type 1 virus (DENV-1), Western Pacific strain, virions (dengue type 1 virus, UniProt P17763 281-775; P17763 115-280); experiment: cell-based or functional assay
# [2] = target: T2, dengue type 3 virus (DENV-3), strain H87, virions (dengue type 3 virus, UniProt P27915 281-773; P27915 115-280); experiment: cell-based or functional assay
# [3] = target: T3, dengue type 2 virus (DENV-2), prototype New Guinea C strain, virions (dengue type 2 virus, UniProt P14340 281-775; P14340 115-280); experiment: cell-based or functional assay
# [4] = target: T4, dengue type 4 virus (DENV-4), strain 814669, virions (dengue type 4 virus, UniProt P09866 280-774; P09866 114-279); experiment: cell-based or functional assay
# [5] = target: T4, dengue type 4 virus (DENV-4), strain …; experiment: cell-based or functional assay; remark: listed apart in the source
# [6] = target: T1, dengue type 1 virus (DENV-1), Western …; experiment: ELISA, virion-coated plate, Fab from ~300 µg/ml
# [7] = target: T2, dengue type 3 virus (DENV-3), strain …; experiment: ELISA, virion-coated plate, Fab from ~300 µg/ml
# [8] = target: T3, dengue type 2 virus (DENV-2), prototype …; experiment: ELISA, virion-coated plate, Fab from ~300 µg/ml
# [9] = target: T4, dengue type 4 virus (DENV-4), strain …; experiment: ELISA, virion-coated plate, Fab from ~300 µg/ml
# [10] = target: T1, dengue type 1 virus (DENV-1), Western …; experiment: ELISA, virion-coated plate, Fab from ~140 µg/ml
# [11] = target: T2, dengue type 3 virus (DENV-3), strain …; experiment: ELISA, virion-coated plate, Fab from ~140 µg/ml
# [12] = target: T3, dengue type 2 virus (DENV-2), prototype …; experiment: ELISA, virion-coated plate, Fab from ~140 µg/ml
# [13] = target: T4, dengue type 4 virus (DENV-4), strain …; experiment: ELISA, virion-coated plate, Fab from ~140 µg/ml
# DENV-4 prM glycoprotein = DENV-4 prM glycoprotein (dengue type 4 virus, UniProt P09866 114-279); experiment: radioimmunoprecipitation of prM expressed alone by recombinant vaccinia virus
# DENV-4 E glycoprotein = target: T5, DENV-4 E glycoprotein (dengue type 4 virus, UniProt P09866 280-774); experiment: radioimmunoprecipitation of E expressed alone by recombinant vaccinia virus
# T5 construct: also called vDENV-4 E product
binder,measurement,setting,value
"chimpanzee Fab 3E4 (Fab, V domains shown) VH: VQLLEQSGAEVKKPGGSVKVSCKVSGGTFSRNPISWVRQAPGQGLEWMSVIVPIVGTTKHAQKFQGRVTITADESTSTAYMELSSLRSEDTAVYYCATYRRYADVSSYSEYWGQGTLVTVSS VL: ELTQSPLSLPVTLGQPASISCRSSQNLVHSDGNTYLSWIQQRPGQPPRLLIYKVSNRDSGVPDRFSGSGAGTDFTLKITRVEAEDVGLYYCVQGVQFPITFGQGTKLEIKR",PRNT50 titer,[1],42.7 µg/mL
same,PRNT50 titer,[2],> 100 µg/mL
same,PRNT50 titer,[3],> 100 µg/mL
same,PRNT50 titer,[4],40.5 µg/mL
same,PRNT50 titer,[5],91 µg/mL
same,ELISA titer of Fab binding,[6],4.61 log10 of reciprocal dilution
same,ELISA titer of Fab binding,[7],4.61 log10 of reciprocal dilution
same,ELISA titer of Fab binding,[8],4.31 log10 of reciprocal dilution
same,ELISA titer of Fab binding,[9],4.61 log10 of reciprocal dilution
same,ELISA titer of Fab binding,[10],4 log10 of reciprocal dilution
same,ELISA titer of Fab binding,[11],3.6 log10 of reciprocal dilution
same,ELISA titer of Fab binding,[12],3.8 log10 of reciprocal dilution
same,ELISA titer of Fab binding,[13],3.8 log10 of reciprocal dilution
same,binding result,DENV-4 prM glycoprotein,no binding
"chimpanzee Fab 2H7 (Fab, V domains shown) VH: EVQLLESGGGLVQPGGSRRLSCAASGFTISDNVMHWVRQAPGKGLEWVALIYSADSTHYADSVKGRFTISRDNSKNTLYLQMDGLRPEDTAVYYCAREYCTGGTCFAHFDYWGQGTLVTVSS VL: ELQMTQSPSSLSASVGDRVTITCRASQSITNYLSWYQQKPGKAPKLLISYSSTLQSGVPSRFSGSGSGTDFTLTISSLQPEDFATYYCHYGYGTHTFGPGTKVDIKR",PRNT50 titer,[1],0.26 µg/mL
same,PRNT50 titer,[2],5.92 µg/mL
same,PRNT50 titer,[3],0.33 µg/mL
same,PRNT50 titer,[4],7.26 µg/mL
same,ELISA titer of Fab binding,[10],4.1 log10 of reciprocal dilution
same,ELISA titer of Fab binding,[11],3.6 log10 of reciprocal dilution
same,ELISA titer of Fab binding,[12],3.8 log10 of reciprocal dilution
same,ELISA titer of Fab binding,[13],3.8 log10 of reciprocal dilution
"chimpanzee Fab 3A2 (Fab, V domains shown) VH: VQLLEQSGGGLVQPGGSRRLSCAVSGFTISDNVMHWVRQAPGKGLEWVALIYSADTTHYADSVKGRFTISRDNSKNTLYLQMDSLRPEDTAVYYCAREYCTGGTCFAHFDYWGQGTLVTVSS VL: ELTQSPSSVSASVGDTVTIACRASQSITNYLSWYQQKPGKAPKLLIYHASTLQSGIPSRFSGSGSGTDFTLTISSLQPDDFATYYCHYGYGTHTFGQGTKLEIKR",PRNT50 titer,[1],0.37 µg/mL
same,PRNT50 titer,[2],2.99 µg/mL
same,PRNT50 titer,[3],1.33 µg/mL
same,PRNT50 titer,[4],4.71 µg/mL
same,ELISA titer of Fab binding,[10],4.1 log10 of reciprocal dilution
same,ELISA titer of Fab binding,[11],3.8 log10 of reciprocal dilution
same,ELISA titer of Fab binding,[12],3.8 log10 of reciprocal dilution
same,ELISA titer of Fab binding,[13],3.8 log10 of reciprocal dilution
"chimpanzee Fab 1A10 (Fab, V domains shown) VH: VQLLEESGAEVKKPGSSVKVSCKVSGGTFSRNPISWVRQAPGQGLEWMGVIVPIVGTTKHAQKFQGRVTIIADESTSTAYMELSSLRSEDTAVYYCATYYADGSSYSEYWGQGTLVTVSS VL: ELQMTQSPLSLSVAPGQPASISCKSSQSLLHSDGNTYLFWYLQKSGQSPQLLIYGLSNRASGVPDRFSGSGSGTDFTLKISQVEAEDVGVFYCMQGTQLPYTFGQGTKLEIKR",PRNT50 titer,[1],0.94 µg/mL
same,PRNT50 titer,[2],26.3 µg/mL
same,PRNT50 titer,[3],5.26 µg/mL
same,PRNT50 titer,[4],12.6 µg/mL
same,ELISA titer of Fab binding,[10],4.1 log10 of reciprocal dilution
same,ELISA titer of Fab binding,[11],3.6 log10 of reciprocal dilution
same,ELISA titer of Fab binding,[12],3.8 log10 of reciprocal dilution
same,ELISA titer of Fab binding,[13],3.8 log10 of reciprocal dilution
"chimpanzee Fab 3C1 (Fab, V domains shown) VH: EVQLLESGAEVKKPGGSVKVSCKVSGGTLSSYGISWVRQAPGQGPEWMGVIIPIRGTANYAQKFQGRVTYTADESTSTVYMELSSLRSEDTAVYYCATGRRGRYPTGSFDYWGQGALVTVSS VL: ELQMTQSPSTLSASVGDRVTVTCRASEDLNKWLAWYQQKPGKAPKLLIYKASSLESGVPSRFSGSGSGTEFTLTISSLQPDDFATYYCQQYQSYPYTFGPGTKLEIKR",PRNT50 titer,[5],> 200 µg/mL
same,ELISA titer of Fab binding,[6],1.3 log10 of reciprocal dilution
same,ELISA titer of Fab binding,[7],1.3 log10 of reciprocal dilution
same,ELISA titer of Fab binding,[8],3.11 log10 of reciprocal dilution
same,ELISA titer of Fab binding,[9],3.71 log10 of reciprocal dilution
same,binding result,DENV-4 E glycoprotein,no binding
"chimpanzee Fab 7G4 (Fab, V domains shown) VH: EVQLLESGGGLVQPGGSLTLSCAASGFTFSSYWMHWVRQAPGKGPEWVALIKKDGSEKYYAESVKGRFTISRDNAKNSLYLQMNSLRAEDTAVYYCTRRITTLTVISDAFDIWGQGTMVTVSS VL: ELTQSPSTLSASVGDRVTITCRASQGISSWLAWYQQKPGKAPKFLIYKASSLESGVPSRFSGSGSGTEFTLTISSLQPDDFATYYCQQYGSYPLTFGPGTKVDIKR",PRNT50 titer,[5],121 µg/mL
same,ELISA titer of Fab binding,[6],4.01 log10 of reciprocal dilution
same,ELISA titer of Fab binding,[7],4.01 log10 of reciprocal dilution
same,ELISA titer of Fab binding,[8],4.01 log10 of reciprocal dilution
same,ELISA titer of Fab binding,[9],4.01 log10 of reciprocal dilution
same,binding result,DENV-4 prM glycoprotein,no binding
"chimpanzee Fab 1B2 (Fab, V domains shown) VH: EVQLLESGPGLVKPSQTLSLTCAVSGGSITSDHYFWSWMRQAPGRGLEWIGYISYRGTTYYNPSLKSRVTMSVTAAKNTLYLQMDGLRPEDTAVYYCARASVTAGMPAAGTLDHWGQGTLVTVSS VL: ELQMTQSPSSLSASVGDRVTITCRASQGISSELNWYQQKPGKAPKLLIYDASSLESGVPSRFSGSGSGTDFTLTISSLQPEDFATYYCQHFNSFPWTFGQGTKLEIKR",PRNT50 titer,[1],0.5 µg/mL
same,PRNT50 titer,[2],> 100 µg/mL
same,PRNT50 titer,[3],3.13 µg/mL
same,PRNT50 titer,[4],29.2 µg/mL
same,ELISA titer of Fab binding,[10],3.9 log10 of reciprocal dilution
same,ELISA titer of Fab binding,[11],3.8 log10 of reciprocal dilution
same,ELISA titer of Fab binding,[12],3.8 log10 of reciprocal dilution
same,ELISA titer of Fab binding,[13],3.8 log10 of reciprocal dilution
